# Values quoted from earlier work as cited in US5972698A, “Tryptase inhibitor” (Novartis Corporation, priority 1993, dated 1999).
# Tested on: Human tryptase
row,inhibition of tryptase (literature),Molecule
1,not affected,"ovomucoid inhibitor: proteinase inhibitor derived from non-human species (protein, UniProt P01005 25-210, looked up) Ovomucoid: AEVDCSRFPNATDKEGKDVLVCNKDLRPICGTDGVTYTNDCLLCAYSIEFGTNISKEHDGECKETVPMNCSSYANTTSEDGKVMVLCNRAFNPVCGTDGVTYDNECLLCAHKVEQGASVDKRHDGGCRKELAAVSVDCSEYPKPDCTAEDRPLCGSDNKTYGNKCNFCNAVVESNGTLTLSHFGKC"
2,not affected,"soybean trypsin inhibitor: printed as 'soybean and lima bean trypsin inhibitor' (protein, UniProt P01070 25-205, looked up) Trypsin inhibitor A: DFVLDNEGNPLENGGTYYILSDITAFGGIRAAPTGNERCPLTVVQSRNELDKGIGTIISSPYRIRFIAEGHPLSLKFDSFAVIMLCVGIPTEWSVVEDLPEGPAVKIGENKDAMDGWFRLERVSDDEFNNYKLVFCPQQAEDDKCGDIGISIDHDDGTRRLVVSKNKPLVVQFQKLDKESL"
3,not inhibited,"mucus-proteinaseinhibitor: naturally occurring antiproteinase (protein, UniProt P03973 26-132, looked up) Antileukoproteinase: SGKSFKAGVCPPKKSAQCLRYKKPECQSDWQCPGKKRCCPDTCGIKCLDPVDTPNPTRRKPGKCPVTYGQCLMLNPPNFCEMDGQCKRDLKCCMGMCGKSCVSPVKA"
